# Experiment: soluble on expression in E. coli; label from the status in PepcDB or PDB records
row,Sequence,soluble on expression in E. coli
1,MGVYDYKNFGTADSKALFSDAMAITLYSYHNLDNGFAAGYQHNGFGLGLPATLVTALLGGTDSQGVIPGIPWNPDSEKLALDAVKKAGWTPITASQLGYDGKTDARGTFFGEKAGYTTAQVEILGKYDAQGHLTEIGIAFRGTSGPRENLILDSIGDVINDLLAAFGPKDYAKNYVGEAFGNLLNDVVAFAKANGLSGKDVLVSGHSLGGLAVNSMADLSGGKWGGFFADSNYIAYASPTQSSTDKVLNVGYENDPVFRALDGSTFTGASVGVHDAPKESATDNIVSFNDHYASTAWNLLPFSILNIPTWISHLPTAYGDGMNRIIESKFYDLTSKDSTIIVANLSDPARANTWVQDLNRNAETHKGSTFIIGSDSNDLIQGGSGNDYLEGRAGNDTFRDGGGYNVILGGAGNNTLDLQKSVNTFDFANDGAGNLYVRDANGGISITRDIGSIVTKEPGFLWGLFKDDVTHSVTASGLKVGSNVTQYDASVKGTNGADTLKAHAGGDWLFGLDGNDHLIGGVGNDVFVGGAGNDLMESGGGADTFLFNGAFGQDRVVGFTSNDKLVFLGVQGVLPNDDFRAHASMVGQDTVLKFGGDSVTLVGVALNSLSADGIVIA,soluble
2,MGWPFIGETISFFKPHRSDSIGTFLQQRVSRYGKVFKSNICGGKAVVSCDQELNMFILQNEGKLFTSDYPKAMHDILGKYSLLLATGEIHRKLKNVIISFINLTKSKPDFLHCAENLSISILKSWKNCREVEFHKEVKIFTLSVMVNQLLSIKPEDPARLYVLQDFLSYMKGFISLPIPLPGTGYTNAIKVRSNRNIHQNAIIEDMNNAIREEDFLDSIISNEDEEHAAIRAKKGDGELLNWEDYQKMEFTQCVISEALRCGNIVKTVHRKATHDIKFNEYVIPKGWKVFPIFTAVHLDPSLHENPFEFNPMRWTKTTAFGGGVRVCPGGELGKLQIAFFLHHLVLSYRWKIKSDEMPIAHPYVEFKRGMLLEIEPTKFLED,soluble
3,MGYEGIIVVDVRDAEAYKECHIPTAISIPGNKINEDTTKRLSKEKVIITYCWGPACNGATKAAAKFAQLGFRVKELIGGIEYWRKENGEVEGTLGAKADLFWNMKKESLEHHHHHH,not soluble
4,MGYIEDMRNLVGNHPLILIGSHAIILNEKDEVLLQLRTDFNRWGIIGGALEYNETLEDALKREVFEETGLIIKNPELFRTYSGPDFFQIYPNGDQVHGVLVVYICREFHGELVCDHTESKELRFFSLDELPNNLPPVIEKIITDYLKK,not soluble
5,MHALHFSASDKAALYREVLPQIESVVADETDWVANLANTAAVLKEAFGWFWVGFYLVDTRSDELVLAPFQGPLACTRIPFGRGVCGQAWAKGGTVVVGDVDAHPDHIACSSLSRSEIVVPLFSDGRCIGVLDADSEHLAQFDETDALYLGELAKILEKRFEASRQAV,soluble
6,MHATDQTFQILLSQLLEKVEDRCPECGSEQYVWQQKNKDGTERCAPTCWSCGYKMLKKHEQQANQQRSQESFMARTQKFFHQGSLIADDALRQCRLTNYQTTELETRQAKERALAAVSAIVEGKPIHVIFSGKPGVGKSHLAISILVEVLERSAYQKYCLFVSYSELLEKLKMSMNESAKSQAKAQAYITRMKKADVLVLDDLGAELGIKNKVSTDFNNDILNRILEARQNKATIFTTNFSGKQLVEAYGTRIISRLMKHANGYVFQYKDTTDKRMRSVKLEHHHHHH,not soluble
7,MHCNDGGPATLGLFSDSDLQQPARVEVLGPQSRVLRGFALPWVEALLPQLDAVLAAAPFRQMQTPGGFTMSVGLSSCGQLGWTTDRSGYRYSPIDPQSQRPWPALPKVFQELAEAAAEAAGFPGFAPDSCLINCYRPGAKMSLHQDKNERDYSAPIVSLSLGLPAIFLFGGRQRSDKSQRVALLHGDVVVWGGVDRLRYHGVLALKDGHHPLLGQQRINLTLRRAGLEHHHHHH,not soluble
8,MHDKMHDTGTRSDMARFNPLHGNPLKSRADVRRALDDSFAPLLPYFSPGGARVALSGTAAHFDRAAADLEGFARPLWGIAPLALSGDTFAHWPLLAKGIANGTDPAHPDYWGDVRQKDQRLVELAAIGFALRLAPQHLWEPLSDAQKENVSRYLLAARERNYADNNWKFFRVMVDMALDHLGIGFDRSLTETFQKELDDFYIADGWYRDGNYRRIDHYIAFAMHFYGLIYARLSKPDDAYAKRYRERARLFAGDFASWFDEDGGALAFGRSMTYRFACGGFWAGLAFADEEALPWGEIKGLYLSHLRWWAEKPIADRDGVLSIGYAYPQLTMSESYNSAGSPYWAFKAFLPLALPESHPFWQAQETLPKVSTNPHPLVHPGMVMMRAKGNVTALSSGQENLAMRGGPEKYAKFAYSSRYGFGVEVDERGFRTNGFDNILAFSDDGLHYRVRETNRKVLMAGANLRATWKPFPDVTVETTLVAAENWHVRLHRITSARALAVAEGGFAINRNDGERDVVSETGGKATADCGTDISAIVDLGSTISRHGVALKALPNTNLINAKTTVPQLRGEIPAGETMLACAVFAGVAGAESERALAAVPACPDLEALDRLFADRGVPVSAMAGEPQLEHHHHHH,not soluble
9,MHDLDRNEDRLRGTYDFPFEFHHIDHNHPRYVMSYHWHVEYEIIRILDGSLTVTLDEKSFTATAGDIIFVHSGILHSGIPEDCVYQCIVFDGNTFLKNNSVCAGYMQKIIHQEILIYHHFTPKYVDICATVNSLFDALWKKPSGYELSVLGQFYHFFGLIFGNHYYLESVTRARRDYKRILQLKQVLDFIEHNYASPLTLQQLSASVSMSPKYFCRFFSEMTHQTPMDYLNHQRIEQACYQLSTTDDSITEIAYRNGFNDLSYFIRTFKKYKGITPGKYKKA,not soluble
10,MHDTEKSDSGIVAEKPTNKAGLLAAEWAEPRPGTKGNAEQQRMHRTQGRARMTQSLDRVRTAARLRKKDRFTALFHHINVDTLRAAFFALRRKAAPGVDGMTWEDYEEDLEPRLADLHKRVQRGAYRPQPSRRTYIPKADGKQRPLAIAALEDKIVQGANRHRAQRHLRRRLLWLFLRVSARQRTTAAALEHHHHHH,soluble
11,MHDVPPFSGAKLALFYGDHLVVYKRDEKPGIPFPGYWDFPGGGREGLETPAECALRELEEEFSIRLEEPRIEWQRQYPSTSGSAPFAYFLVARLEDREFEAIRFGDEGQYWRLMEVDAYLAHAMAVPYLQSRLGDYLRERRRIGE,soluble
12,MHEQLNSRVETCYLQAETFFKRTFKRPVVSFQLRGQKAGVAHLHENLLRFNPQLYQENAEDFLRQTVPHEVAHLVAHQLFGGGIQPHGEEWQLIMRGVYELPPNRCHTYAVQRRSVIRYIYRCPCPDSDFPFTSQRHSMVRKGRRYLCRRCREPLMFSGETRTELEHHHHHH,not soluble
13,MHFELNQATHCKNHVVIHNELSPGIILNIACRKGSIDDKPTRFHKLNFKDPSYVIEFEDNYPNDETWYCLLSHGTRPKYWYDIQVYRQGIQPKCNQLRLWIARMDGIWFTRRYESPPGHVLDWKI,not soluble
14,MHFSRIVSGLACSIILNISVSNANAAQVENYTQYLPDGANLALMVQKIGASTPAIDYHAQQMALPASTQKVLTALAALLQLGPDFRFNTTLESHGTITDGVLRGNLIARFGGDPTLTRQQLRNMVATLRKAGVKQIAGDVVIDTSVFASHDKAPGWPWNDMTQCFSAPPAAAIVDRNCFSVSLYSAPNPGDTAFIRVASYYPVQMFSEVRTLAKGSPDAQYCELDVVPGELNRFTLTGCLTQRSEPLPLAFAVQNGASYAGAILKDELKKADIQIDGNLRRQTIPSPAGNVLAQTQSAPLHDLLKIMLKKSDNMIADTVFRTIGHQRFGVPGTWRSGADAVRQILRQKAGVDLGNSIVVDGSGLSRHNLISPATMMQVLQYIAQNDQELNFISMLPLAGYDGTLRYRGGLHEAGVNGKVSAKTGALQGVYNLAGFITTASGQRMAFVQFLSGYAVPPEDQKNRRAPLVRFESRLYKDIYQNN,not soluble
15,MHHHHHHGSTKTNSEILEQLKQASDGLLFMSESEYPFEVFLWEGSAPPVTHEIVLQQTGHGQDAPFKVVDIDSFFSRATTPQDWYEDEENAVVAKFQKLLEVIKSNLKNPQVYRLGEVELDVYVIGETPAGNLAGISTKVVET,soluble
16,MHHHHHHMSGGLTPDQAIDAIRGTGGAQPGCRALHAKGTLYRGTFTATRDAVMLSAAPHLDGSTVPALIRFSNGSGNPKQRDGAPGVRGMAVKFTLPDGSTTDVSAQTARLLVSSTPEGFIDLLKAMRPGLTTPLRLATHLLTHPRLLGALPLLREANRIPASYATTEYHGLHAFRWIAADGSARFVRYHLVPTAAEEYLSASDARGKDPDFLTDELAARLQDGPVRFDFRVQIAGPTDSTVDPSSAWQSTQIVTVGTVTITGPDTEREHGGDIVVFDPMRVTDGIEPSDDPVLRFRTLVYSASVKLRTGVDRGAQAPPV,soluble
17,MHHHHHHSENTFIFPATFMWGTSTSSYQIEGGTDEGGRTPSIWDTFCQIPGKVIGGDCGDVACDHFHHFKEDVQLMKQLGFLHYRFSVAWPRIMPAAGIINEEGLLFYEHLLDEIELAGLIPMLTLYHWDLPQWIEDEGGWTQRETIQHFKTYASVIMDRFGERINWWNTINEPYCASILGYGTGEHAPGHENWREAFTAAHHILMCHGIASNLHKEKGLTGKIGITLNMEHVDAASERPEDVAAAIRRDGFINRWFAEPLFNGKYPEDMVEWYGTYLNGLDFVQPGDMELIQQPGDFLGINYYTRSIIRSTNDASLLQVEQVHMEEPVTDMGWEIHPESFYKLLTRIEKDFSKGLPILITENGAAMRDELVNGQIEDTGRQRYIEEHLKACHRFIEEGGQLKGYFVWSFLDNFEWAWGYSKRFGIVHINYETQERTPKQSALWFKQMMAKNGF,soluble
18,MHHHHHHSSGLVPRGSGMKETAAAKFERQHMDSPDLGTDDDDKAMAGTPSKPAEPIGPVFTKLKPWQIPKRDWFDKDFLFGASTSAYQIEGAWNEDGKGPSTWDHFCHTYPERISDMTNGDVAANSYHLYEEDVKALKDMGMKVYRFSISWSRILPDGTGKVNQAGIDYYNKLINSLIDNDIVPYVTIWHWDTPQALEDKYGGFLNRQIVDDYKQFAEVCFKNFGDRVKNWFTFNEPHTYCCFSYGEGIHAPGRCSPGMDCAVPEGDSLREPYTAGHHILLAHAEAVQLFKARYNMHGDSKIGMAFDVMGYEPYQDSFLDDQARERSIDYNMGWFLEPVVRGDYPFSMRSLIGDRLPMFTKEEQEKLASSCDIMGLNYYTSRFSKHVDMSPDFTPTLNTDDAYASSETTGSDGNDIGPITGTYWIYMYPKGLTDLLLIMKEKYGNPPVFITENGIADVEGDESMPDPLDDWKRLDYLQRHISAVKDAIDQGADVRGHFTWGLIDNFEWSLGYSSRFGLVYIDKNDGNKRKLKKSAKWFSKFNSVPKPLLKTTNNNATMTAASVSV,soluble
19,MHHHHHHSSGRENLYFQGSTKGDINQYYTLENTIGRGSWGEVKIAVQKGTRIRRAAKKIPKYFVEDVDRFKQEIEIMKSLDHPNIIRLYETFEDNTDIYLVMELCTGGELFERVVHKRVFRESDAARIMKDVLSAVAYCHKLNVAHRDLKPENFLFLTDSPDSPLKLIDFGLAARFKPGKMMRTKVGTPYYVSPQVLEGLYGPECDEWSAGVMMYVLLCGYPPFSAPTDSEVMLKIREGTFTFPEKDWLNVSPQAESLIRRLLTKSPKQRITSLQALEHEWFEKQLSSSPRNLL,soluble
20,MHHHHHHSSGRENLYFQGTLSALAVDLGGTNLRVAIVSMKGEIVKKYTQFNPKTYEERINLILQMCVEAAAEAVKLNCRILGVGISTGGRVNPREGIVLHSTKLIQEWNSVDLRTPLSDTLHLPVWVDNDGNCAALAERKFGQGKGLENFVTLITGTGIGGGIIHQHELIHGSSFCAAELGHLVVSLDGPDCSCGSHGCIEAYASGMALQREAKKLHDEDLLLVEGMSVPKDEAVGALHLIQAAKLGNAKAQSILRTAGTALGLGVVNILHTMNPSLVILSGVLASHYIHIVKDVIRQQALSSVQDVDVVVSDLVDPALLGAASMVLDYTTRR,soluble
